The labels stand for the following.
B1: Apoptosis regulator Bcl-2 homolog (Murid herpesvirus 4 (MuHV-4)), P89884 (parent)
chain: MSHKKSGTYWATLITAFLKTVSKVEELDCVDSAVLVDVSKIITLTQEFRRHYDSVYRADYGPALKNWKRDLSKLFTSLFVDVINSGRIVGFFDVGRYVCEEVLCPGSWTEDHELLNDCMTHFFIENNLMNHFPLEDIFLAQRKFQTTGFTFLLHALAKVLPRIYSGNVIYV

Consider 1 variant from IntAct's records for PubMed 24034250.

The variants in the first assay derive from B1. As to conditions: with becn1_human BECN1, Q14457.
Sequence of becn1_human BECN1, Q14457 (Q14457 whole entry): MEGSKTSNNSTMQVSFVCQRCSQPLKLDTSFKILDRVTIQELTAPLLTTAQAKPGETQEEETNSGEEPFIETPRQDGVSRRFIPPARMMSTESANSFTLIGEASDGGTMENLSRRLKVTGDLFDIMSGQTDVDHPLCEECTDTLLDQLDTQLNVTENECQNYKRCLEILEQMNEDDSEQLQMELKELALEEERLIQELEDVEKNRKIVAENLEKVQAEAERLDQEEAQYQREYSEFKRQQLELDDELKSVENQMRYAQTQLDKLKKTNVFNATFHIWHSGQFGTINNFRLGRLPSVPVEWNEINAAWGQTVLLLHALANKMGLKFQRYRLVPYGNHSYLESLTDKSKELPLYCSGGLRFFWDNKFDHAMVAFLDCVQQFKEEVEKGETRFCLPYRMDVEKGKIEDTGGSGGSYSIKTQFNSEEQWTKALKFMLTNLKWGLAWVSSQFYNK
In the case of S85A;G86A;R87A, the “effect of a mutation on the interaction” value is given as “decreasing interaction strength”.

The variants in another assay derive from B1. As to conditions: with bax_human BAX.
On to S85A;G86A;R87A, for which the “effect of a mutation on the interaction” value is reported as “decreasing interaction strength”.
